Measured values from patent US20220235143A1 (Memorial Sloan Kettering, published 2022).
Where a chain is given by its changes, count along the chain named. Where no end group is shown, it is not given here.

T1: MUC16 peptide-2 glycopeptide (human, also: glycopeptide, glycan and its site not given here)
T1 peptide: TLDRSSVLVDGYSPNRNE

T2: biotinylated MUC16 peptide-2 (human, also: biotinylated (position not given here))
T2 construct: Captured on streptavidin sensor (SPR) or streptavidin magnetic beads (radioligand assays); also called biotinylated peptide-2
T2 peptide: TLDRSSVLVDGYSPNRNE

T3: MUC16 c114 expressed on transfected SKOV3 cells (SKOV3^c114) (human)
T3 construct: also called deltaMUC16c114; c114 peptide
T3 chain: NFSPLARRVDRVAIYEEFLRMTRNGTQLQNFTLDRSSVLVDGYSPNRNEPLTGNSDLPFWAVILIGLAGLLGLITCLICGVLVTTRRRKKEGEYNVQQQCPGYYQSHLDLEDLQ

B1: 18C6 H1L1 humanized antibody (antibody, human IgG1, kappa, V domains shown)
VH: QVTLKESGPGILQPTQTLTLTCTFSGFSLSTVGMGVGWSRQPSGKGLEWLAHIWWDDEDKYYNPALKSRLTITKDTSKNQVFLKITNVDTADTATYYCTRIGTAQATDALDYWGQGTLVTVSS
VL: DIVMTQSAPSVPVTPGESVSISCRSSKSLLHSNGNTYLYWFLQKPGQSPQRLIYYMSNLASGVPDRFSGRGSGTDFTLKISRVEAEDVGVYYCMQSLEYPLTFGGGTKLEIKR
notes: also called H1L1 humanized 18C6 antibody
B2: 18C6 H2L2 humanized antibody (antibody, human IgG1, kappa, V domains shown)
VH: B1 VH with G10T, I11L, L12V, Q13K, F82V, K84T, T90P, A91V
VL: B1 VL with P9L, V11L, S18P, R70S
B3: 18C6 H1L2 humanized antibody (antibody, human IgG1, kappa, V domains shown)
VH: B1 VH
VL: B1 VL with P9L, V11L, S18P, R70S
B4: 18C6 H2L1 humanized antibody (antibody, human IgG1, kappa, V domains shown)
VH: B1 VH with G10T, I11L, L12V, Q13K, F82V, K84T, T90P, A91V
VL: B1 VL
B5: 4H11-H1L1 hIgG (antibody)
heavy: not shown
light: DIELTQSPSSLAVSAGERVTMNCKSSQSLLNSRTRKNQLAWYQQKPGQSPELLIYWASTRQSGVPDRFSGSGSGTDFTLTISSVQAEDVAVYYCQQSYNLLTFGPGTKLEIKRTVAAPSVFIFPPSDEQLKSGTASVVCLLNNFYPREAKVQWKVDNALQSGNSQESVTEQDSKDSTYSLSSTLTLSKADYEKHKVYACEVTHQGLSSPVTKSFNRGEC
notes: also called humanized 4H11 H1L1
B6: 4H11-H1L2 hIgG (antibody)
heavy: not shown
light: B5 light with E3V, S9D, A15L, P105Q
notes: also called H1L2 humanized 4H11 antibody
B7: 4H11-H2L2 hIgG (antibody)
heavy: not shown
light: B5 light with E3V, S9D, A15L, P105Q
B8: 4H11-H2L1 hIgG (antibody)
heavy: not shown
light: B5 light
B9: humanized variant of 4H11 (hu4H11), DFO immunoconjugate (antibody, V domains shown)
VH: EVKLQESGGGFVKPGGSLRVSCAASGFTFSSYAMSWVRLAPEMRLEWVATISSAGGYIFYSDSVQGRFTISRDNAKNSLHLQMGSLRSGDTAMYYCARQGFGNYGDYYAMDYWGQGTTVTVSS
VL: DIELTQSPSSLAVSAGERVTMNCKSSQSLLNSRTRKNQLAWYQQKPGQSPELLIYWASTRQSGVPDRFSGSGSGTDFTLTISSVQAEDVAVYYCQQSYNLLTFGPGTKLEIKR
modifications: p-SCN-Bn-DFO on lysine epsilon-amines, ~1 DFO conjugated per antibody; 89Zr-labelled where named [^89Zr]Zr-DFO-hu4H11
notes: both entries are variable regions (H1 and L1); Full-length antibody; also called DFO-hu4H11; [^89Zr]Zr-DFO-hu4H11

Molecular target: T1, MUC16 peptide-2 glycopeptide
Test: SPR, BIAcore X100, peptide-2 glycopeptide over antibody captured by anti-IgG
Method: Ligand capture was performed by flowing the humanized anti-Muc16 antibodies 18C6 H1L1, 18C6 H1L2, 18C6 H2L1, 18C6 H2L2) and the parental 18C6 mouse antibody onto the respective chips under saturating conditions. The MUC16 peptide-2 was then flowed over at the various test concentrations (150 nM, 75 nM, 37.5 nM, 18.8 nM, and 9.4 nM). The assay conditions used for measuring the effects of the glycopeptide were as follows: association time of 2 minutes, disassociation time of 10 min, and a flow rate of 30 μl per minute.

In order of rising Kd:
1. B1  6.7 nM
2. B3  8.7 nM
3. B2  9.2 nM
4. B4  9.9 nM

In order of falling koff:
1. B4  0.0054 s⁻¹
2. B2  0.004 s⁻¹
3. B3  0.0025 s⁻¹
4. B1  0.0019 s⁻¹

In order of rising kon:
1. B1  287000 M⁻¹ s⁻¹
2. B3  287000 M⁻¹ s⁻¹
3. B2  433000 M⁻¹ s⁻¹
4. B4  549000 M⁻¹ s⁻¹

Molecular target: T2, biotinylated MUC16 peptide-2
Test: SPR, BIAcore X100, single cycle kinetics, antibody over captured biotinylated peptide-2
Method: The relative binding affinities of 4H11 humanized antibodies (H1L1, H1L2, H2L1, H2L2) were compared by surface plasmon resonance using a BIACore-X100 instrument with a Biotin CAP Chip (GE Healthcare). The assay format consisted of capturing the biotinylated MUC16 peptide-2 ([…]; SEQ ID NO: 52) onto a streptavidin coated sensor and flowing over the antibody at various concentrations using single cycle kinetics. Ligand capture was performed by flowing 0.5 μg/ml of biotinylated MUC16 peptide-2 at a rate of 5 μl per minute for 65 seconds. The 4H11 humanized antibodies were then flowed over at the various test concentrations (150 nM, 75 nM, 37.5 nM, 18.8 nM, and 9.4 nM). The assay conditions used for measuring the effects of the added antibodies were as follows: association time of 2 minutes, disassociation time of 10 min, and a flow rate of 30 μl per minute.

In order of falling Kd:
1. B7  2.37 nM
2. B6  2.19 nM
3. B5  1.57 nM
4. B8  1.33 nM

In order of falling koff:
1. B6  0.000198 s⁻¹
2. B7  0.000175 s⁻¹
3. B5  0.000146 s⁻¹
4. B8  0.000101 s⁻¹

In order of rising kon:
1. B7  73800 M⁻¹ s⁻¹
2. B8  76100 M⁻¹ s⁻¹
3. B6  90400 M⁻¹ s⁻¹
4. B5  92700 M⁻¹ s⁻¹

Molecular target: T3, MUC16 c114 expressed on transfected …
Test: flow cytometry, PE-Texas Red axis 10^0 to 10^5, secondary antibody detection; untransfected SKOV3 Cells + DFO-hu4H11 + Sec Ab lie with their controls below about 5 x 10^2

B9: binds.

Molecular target: T3, MUC16 c114 expressed on transfected …
Test: FACS, geometric mean PE fluorescence, SKOV3 c114 transfectant cells, mouse anti-human IgG1-Fc-PE detection; same antibody on vector control SKOV3 phrGFP about 200, secondary alone about 170
Method: (§1) In a separate experiment, full-length humanized 4H11 antibodies (IgG1-Fc) comprising different combinations of humanized heavy and light chain variable regions of the 4H11 antibody were assayed. An anti-human IgG1-Fc-PE antibody was employed for fluorescent staining of MUC16-positive OVCAR3 or SKOV3 transfectant cells expressing MUC16 peptides. FIGS. 10A and 10B provide data for mean PE fluorescence and percentage PE positive cells for the 4H11 H1L1, H1L2, H2L1 and H2L2 antibodies assayed.

B8: binds.

Molecular target: T3, MUC16 c114 expressed on transfected …
Test: FACS, geometric mean PE fluorescence, SKOV3 c114 transfectant cells, mouse anti-human IgG1-Fc-PE detection; same antibody on vector control SKOV3 phrGFP about 170, at the level of secondary alone (about 170)
Method: as §1

B7: binds.
